Assay results: patent US8063014B2, “Self-assembly of peptide-amphiphile nanofibers under physiological conditions” (Northwestern University, priority 2002, dated 2011)
Non-standard residues stand in square brackets, D forms with d. No end group written: not given here. *: point of attachment. C16 alkyl = N-terminal C16 alkyl tail, CCCCCCCCCCCCCCCC*; pS = N[C@@H](COP(=O)(O)O)C(=O)O

What was measured:
[1] = Gelation on addition of metal salts (vial inversion); type: physicochemical; settings: for gelation in the presence of KCl or NaCl / result of addition of 200 mM of KCl: 10 mM PA solution; for gelation in the presence of KCl or NaCl: salt concentrations up to 6M; for gelation properties, KCl / gelation properties, BaCl2 / gelation properties, CaCl2 / gelation properties, GdCl3 / gelation properties, ZnBr2 / gelation properties, Cu(ClO4)2 / gelation properties, MgCl2: PA 10 mg/ml (roughly 8 mM); for gelation properties, BaCl2 / gelation properties, CaCl2 / gelation properties, GdCl3 / gelation properties, ZnBr2 / gelation properties, Cu(ClO4)2 / gelation properties, MgCl2: salt 20 mM; for minimal amount of CA+2 and Gd+3 ions needed for the gelation: titration
Procedure: 100 μl of 10 mg/ml solution of peptide-amphiphile 20 was treated with 1M CaCl2 (adjusted to pH 6) drop wise in 1 μl increments. The solutions were shaken after each addition of the CaCl2 solution in order to obtain better diffusion of the divalent metal ions. Gelation was immediate. […] This calcium induced self-assembly may be particularly useful for medical applications where formation of a gel at physiological pH is desired. Trivalent metal cations can also be used for gelation.
To determine the relative number of metal ions necessary for gelation of the PAs, titration experiments were performed with PA molecules 26 and 27. […] (See Table 3, below). […] None of the negatively charged peptide-amphiphiles except molecule 32 formed gels in the presence of KCl at a ratio 1 molecule of PA per 20 molecules of KCl.
(§1) The synthesis of the peptide amphiphiles illustrates in examples 19-22 was performed using a standard synthesis scheme described elsewhere, herein, and as further available in the literature. Regarding gelation and with reference to the data of Table 3, […] volumes of PA solutions at concentrations 10 mg/ml (approximately 8 mM), pH 7.5 were mixed with 1 M solutions of NaCl, KCl, MgCl2, CaCl2, BaCl2, ZnBr2, […], Gd^+3 and Cu(ClO4)2. The amount of polyvalent ions added to the solutions varied from 0.5 to 5 metal ions per molecule of PA. For monovalent metal ions the maximum concentration of 6 M of metal ions per 10 mM of PA molecules has been tested. The solutions of the metal salts were added to the PA solutions by micropeppetors, the solutions were stirred briefly, in order to obtain better mixing of the components. The formation of self-supporting gels was examined by flipping of the vials up side down. In order to test the ability of cell compatible solutions to induce a gelation of PAs equal amounts 10 mM PA solutions were mixed with following formulations: MEM-α, DMEM containing 10% of fetal bovine serum, PBS without Ca^+2 and Mg^+2 and Hank's solution without Ca^+2 and Mg^+2 (Gibco). The ability of the above solutions to induce formation of the PAs was examined visually by flipping the vials up side down.

[2] = Solubility, pH-dependent precipitation and gelation in water; type: physicochemical
Procedure: After synthesis (see, example 10), the PA of FIG. 1 (characterized by ^1H NMR and matrix-assisted laser desorption/ionization time-of-flight mass spectrometry (MALDI-TOF MS): matrix ion [M−H]^−1=1333) was treated with dithiothreitol (DTT) at a pH of 8 to reduce all cysteine residues to free thiols. […] However, upon acidification of the solution below pH 4 the material rapidly becomes insoluble. Solutions more concentrated than 2.5 mg/ml form birefringent gels in water that are self-supporting upon inversion of the container. […] Negatives were digitized in the Umax PowerLook scanner with resolution 1200 dpi. The average thickness of the PA fibers was determined by two different procedures. First the Fourier transform of the images and following measurements of the distances between the peaks were performed in the NIH Image […] program. The second approach applied was averaging technique based on the cross-correlation method, widely used in single particle reconstruction using the EMAN […] program. For each data set 1200-1300 individual boxes were selected.
Several PAs with basic amino acids that can self-assemble at alkaline pH and also mixed systems, in which oppositely charged PAs self-assemble at neutral pH, were prepared. For this purpose PA compounds 22-25 were prepared by standard solid phase peptide synthesis followed by alkylation with the C16 fatty acid, palmitic acid. See Table 2, FIG. 10b (PA 22) and FIGS. 10c-e (PAs 23-25). The peptides thus prepared were characterized by electrospray mass spectroscopy and found to correspond to their respective expected masses.
Solutions of each compound of example 6 were prepared at a concentration of 0.1 mg/m1 at neutral pH.

[3] = Gelation on mixing with cell culture media, PBS or Hank's solution; type: physicochemical; settings: for gel formation on mixing with equal amounts of cell culture media: 10 mM PA solution in water; for gel formation on mixing with PBS and Hank's solutions depleted by Ca2+ and Mg2+: PA solution
From the text: One potential application of the peptide-amphiphile self-assembled gels is in the area of tissue engineering, in particular the formation of artificial extracellular matrices and cell delivery systems. The results of this example show PA self-assembly in situ and in vitro cell culture systems. Body fluids as well as cell culture media contain significant amounts inorganic cations. It was presumed that the peptide amphiphiles would form a gel upon mixing with these liquids.
as §1

[4] = Mineralization of PA nanofibers with CaCl2 and Na2HPO4 on TEM grid
Procedure: To investigate the mineralization properties of PA nanofibers of this invention, the material was assembled and mineralized directly on a holey carbon coated TEM grid—to allow study of the dynamics of the mineralization process while minimizing artifacts of TEM sample preparation. To prepare samples, a drop of aqueous PA (1 mg/ml) was mounted on the holey grid and the self-assembly of the PA was induced in an atmosphere of HCl vapor. The grids were immersed in aqueous iodine to oxidize the cysteine thiol groups to disulfides. After rinsing with distilled water, the PA coated grids were treated with 5 μl of 10 mM CaCl2 on one side and 5 μl of 5 mM Na2HPO4 on the other side. The two solutions are able to mix only by passing through the holes in the carbon support.
In a second control, a PA was prepared in which phosphoserine was replaced by serine and treated as above with calcium and phosphate.

[5] = KCl concentration up to 6M (molecules 26 and 27)

| Substance | gelation properties, BaCl2 [1] | gelation properties, CaCl2 [1] | gelation properties, GdCl3 [1] | gelation properties, ZnBr2 [1] | gelation properties, KCl ([1]; KCl 200 mM, pH 7.5) | further results |
| --- | --- | --- | --- | --- | --- | --- |
| 20 ({C16 alkyl}-CCCCGGGSRGD-OH; cysteine pairing not given here) [compound 20] |  |  |  |  |  | gelation on dropwise addition of CaCl2 ([1]; 100 μl of 10 mg/ml PA, 1M CaCl2 (pH 6) in 1 μl increments): immediate |
| 21 ({C16 alkyl}-CCCCGGGEIKVAV-OH; cysteine pairing not given here) [compound 21] |  |  |  |  |  | appearance of the solution ([2]; 5 mg/ml in water at pH 7): slightly cloudy |
| 22 ({C16 alkyl}-CCCCGGGKIKVAV-NH2; cysteine pairing not given here) [compound 22] |  |  |  |  |  | appearance of the solution ([2]; 5 mg/ml in water at pH 7): slightly cloudy; appearance of the solution ([2]; 10 mg/ml, neutral pH): cloudy and viscous |
| 24 ({C16 alkyl}-AAAAGGGKYIGSR-NH2; SMILES CCCCCCCCCCCCCCCCN[C@@H](C)C(=O)N[C@@H](C)C(=O)N[C@@H](C)C(=O)N[C@@H](C)C(=O)NCC(=O)NCC(=O)NCC(=O)N[C@@H](CCCCN)C(=O)N[C@@H](Cc1ccc(O)cc1)C(=O)N[C@H](C(=O)NCC(=O)N[C@@H](CO)C(=O)N[C@@H](CCCNC(=N)N)C(N)=O)[C@@H](C)CC) [compound 24] |  |  |  |  |  | pH above which a precipitate forms on slow addition of base ([2]; 0.1 mg/ml solution): above 9.5 pH; state at neutral pH ([2]; 0.1 mg/ml solution): completely dissolved; appearance of the solution ([2]; 10 mg/ml, neutral pH): cloudy and viscous |
| 25 ({C16 alkyl}-AAAAGGGEIKVAV-OH; SMILES CCCCCCCCCCCCCCCCN[C@@H](C)C(=O)N[C@@H](C)C(=O)N[C@@H](C)C(=O)N[C@@H](C)C(=O)NCC(=O)NCC(=O)NCC(=O)N[C@@H](CCC(=O)O)C(=O)N[C@H](C(=O)N[C@@H](CCCCN)C(=O)N[C@H](C(=O)N[C@@H](C)C(=O)N[C@H](C(=O)O)C(C)C)C(C)C)[C@@H](C)CC) [compound 25] |  |  |  |  |  | pH below which the PA precipitates on slow acidification (HCl) ([2]; 0.1 mg/ml solution): < 4.5 pH; state at neutral pH ([2]; 0.1 mg/ml solution): completely dissolved; state on increasing the solution's pH (KOH) ([2]; 0.1 mg/ml solution): completely dissolved |
| 26 (CCCCGGG[pS]RGD-OH; not fully specified (N-terminus); cysteine pairing not given here) [compound 26] | gel | gel | gel | gel |  | gelation in the presence of KCl or NaCl [1]: did not gel; gelation properties, KCl [1, 5]: Liquid; minimal amount of CA+2 and Gd+3 ions needed for the gelation [1]: about equal to the number of PA molecules in solution |
| 27 (AAAAGGG[pS]RGD-OH; not fully specified (N-terminus); printed as Alkyl-A4G3S(P)RGD-COOH) [compound 27] | gel | gel | gel | gel |  | gelation in the presence of KCl or NaCl [1]: did not gel; gelation properties, KCl [1, 5]: Liquid; gelation properties, Cu(ClO4)2 [1]: gel; minimal amount of CA+2 and Gd+3 ions needed for the gelation [1]: about equal to the number of PA molecules in solution; gel formation on mixing with equal amounts of cell culture media [3]: gel formation was observed; gel formation on mixing with PBS and Hank's solutions depleted by Ca2+ and Mg2+ [3]: no gel formation was observed |
| 28 (AAAAGGG[pS]KGE-OH; not fully specified (N-terminus)) [compound 28] | gel | gel | gel | gel | Liquid | gel formation on mixing with equal amounts of cell culture media [3]: gel formation was observed; gel formation on mixing with PBS and Hank's solutions depleted by Ca2+ and Mg2+ [3]: no gel formation was observed |
| 29 (CCCCGGGSRGD-OH; not fully specified (N-terminus); cysteine pairing not given here) [compound 29] | gel | gel | gel | gel | Liquid |  |
| 30 ({C16 alkyl}-AAAGGEQS-OH; SMILES CCCCCCCCCCCCCCCCN[C@@H](C)C(=O)N[C@@H](C)C(=O)N[C@@H](C)C(=O)NCC(=O)NCC(=O)N[C@@H](CCC(=O)O)C(=O)N[C@@H](CCC(N)=O)C(=O)N[C@@H](CO)C(=O)O) [compound 30] | gel | gel | gel | gel | Liquid | gelation properties, Cu(ClO4)2 [1]: gel; gelation properties, MgCl2 [1]: gel |
| 31 ({C16 alkyl}-AAAAGGGERGDS-OH; SMILES CCCCCCCCCCCCCCCCN[C@@H](C)C(=O)N[C@@H](C)C(=O)N[C@@H](C)C(=O)N[C@@H](C)C(=O)NCC(=O)NCC(=O)NCC(=O)N[C@@H](CCC(=O)O)C(=O)N[C@@H](CCCNC(=N)N)C(=O)NCC(=O)N[C@@H](CC(=O)O)C(=O)N[C@@H](CO)C(=O)O) [compound 31] |  |  | gel | gel | liquid |  |
| 32 (CCCCGGGEIKVAV-OH; not fully specified (N-terminus); cysteine pairing not given here) [compound 32] |  | gel | gel | gel | gel | result of addition of 200 mM of KCl [1]: formation of a self-supporting gel; gel formation in the presence of KCl ([1]; ratio 1 molecule of PA per 20 molecules of KCl): formed gels; gelation properties, MgCl2 [1]: gel |
| 33 ({C16 alkyl}-CCCCGGGKIKVAV-NH2; cysteine pairing not given here) [compound 33] |  |  |  |  |  | result of addition of 200 mM of KCl [1]: formation of a self-supporting gel; gel formation on mixing with equal amounts of cell culture media [3]: gel formation was observed |
| Alkyl-C4G3SRGD-COOH ({C16 alkyl}-CCCCGGGSRGD-OH; cysteine pairing not given here) [PA 29] |  |  |  |  |  | mineral observed on the fibers by TEM ([4]; 20 minutes of incubation with calcium and phosphate): only amorphous mineral deposit; mineral observed on the fibers by TEM ([4]; 30 minutes of incubation with calcium and phosphate): only amorphous mineral |
